The values below come from patent US20210261685A1 (Alector, published 2021).

Assay [1] has as its target T1, human Axl ECD construct (Full Axl) with linker+His+Avi tag (human, UniProt P30530 26-451).
T1 construct: tested as Expi293 supernatant; also called ECD domain of human Axl
T1 sequence: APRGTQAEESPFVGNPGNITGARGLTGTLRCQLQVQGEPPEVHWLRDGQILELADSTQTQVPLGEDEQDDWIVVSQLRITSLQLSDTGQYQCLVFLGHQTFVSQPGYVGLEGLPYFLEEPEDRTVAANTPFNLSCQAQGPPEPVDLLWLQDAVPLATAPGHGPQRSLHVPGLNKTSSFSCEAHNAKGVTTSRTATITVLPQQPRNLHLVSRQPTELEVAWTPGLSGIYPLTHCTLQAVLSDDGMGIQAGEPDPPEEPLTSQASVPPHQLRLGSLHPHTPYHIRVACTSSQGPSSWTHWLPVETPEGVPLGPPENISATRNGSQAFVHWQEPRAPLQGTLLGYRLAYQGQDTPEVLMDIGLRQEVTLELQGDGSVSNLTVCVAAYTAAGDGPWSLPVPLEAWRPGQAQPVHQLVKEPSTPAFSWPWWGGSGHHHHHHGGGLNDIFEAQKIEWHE
The assay can be described thus: SPR, Carterra LSA, antibody immobilised, construct supernatant injected. The procedure:
Binding of anti-MerTK antibodies of the present disclosure to these domain-swapped chimera or deletion mutants (prepared as described above) was tested by Surface Plasmon Resonance (SPR) using Carterra LSA. Purified anti-MerTK antibodies were immobilized in duplicate on a HC30M chip (Carterra) by amine coupling, following the manufacturer's instructions (described previously). Supernatants containing the constructs were diluted 1:1 with running buffer containing 0.5 mg/mL BSA (HBS-TE, Carterra) and injected over the immobilized antibodies. The surface was regenerated with 10 mM Glycine pH2.0 after each construct injection. Sensorgrams were analyzed using Carterra Epitope software to identify patterns of construct binding. Loss of binding to MerTK constructs with domains deleted or swapped in from Axl and/or gain of binding to Axl constructs with MerTK domains swapped in were evaluated. Data from these studies was used to construct a domain binding map for anti-MerTK antibodies and their binding to various domains of human MerTK.
On the technique in general: Surface plasmon resonance follows binding to a sensor surface in real time, without labels.

For assay [2], the target named is T2, murine MerTK overexpressed on CHO cells (CHO-muMerTK OE cells) (mouse, UniProt Q60805 19-994).
T2 construct: whole, on cells
T2 sequence (looked up): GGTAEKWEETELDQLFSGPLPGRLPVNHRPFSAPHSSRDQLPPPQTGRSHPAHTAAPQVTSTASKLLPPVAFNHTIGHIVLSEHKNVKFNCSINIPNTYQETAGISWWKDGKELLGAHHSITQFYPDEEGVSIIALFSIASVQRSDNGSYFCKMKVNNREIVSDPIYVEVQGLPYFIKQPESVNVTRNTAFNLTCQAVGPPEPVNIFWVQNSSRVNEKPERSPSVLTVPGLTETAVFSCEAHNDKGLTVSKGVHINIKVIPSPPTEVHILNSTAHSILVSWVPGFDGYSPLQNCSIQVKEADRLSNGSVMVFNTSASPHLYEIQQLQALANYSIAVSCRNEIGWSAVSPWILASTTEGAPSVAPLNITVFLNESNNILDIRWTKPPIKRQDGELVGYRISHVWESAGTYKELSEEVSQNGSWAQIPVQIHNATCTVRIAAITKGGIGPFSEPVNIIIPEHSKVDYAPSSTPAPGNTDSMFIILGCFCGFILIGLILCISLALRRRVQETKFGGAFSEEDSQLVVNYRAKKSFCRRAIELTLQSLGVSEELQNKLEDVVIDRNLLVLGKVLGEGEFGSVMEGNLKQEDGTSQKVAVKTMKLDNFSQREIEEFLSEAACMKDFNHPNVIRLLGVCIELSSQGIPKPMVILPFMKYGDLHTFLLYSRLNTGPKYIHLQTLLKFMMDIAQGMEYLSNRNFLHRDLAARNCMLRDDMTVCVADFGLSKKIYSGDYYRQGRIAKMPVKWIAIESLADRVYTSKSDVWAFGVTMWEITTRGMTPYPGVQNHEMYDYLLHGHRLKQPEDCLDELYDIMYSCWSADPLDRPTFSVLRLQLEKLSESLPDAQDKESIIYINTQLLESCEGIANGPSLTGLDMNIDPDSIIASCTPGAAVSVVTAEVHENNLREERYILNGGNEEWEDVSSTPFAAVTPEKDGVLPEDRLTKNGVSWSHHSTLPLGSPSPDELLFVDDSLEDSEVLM
The assay can be described thus: flow cytometry on CHO-muMerTK OE cells, Prism fit. How it is done:
To determine whether recombinant anti-human MerTK antibodies of the present disclosure bind to human MerTK endogenously expressed on SK-MEL-5 cells and to CHO cells overexpressing mouse MerTK (CHO-muMerTK OE cells), the following experiments were performed. SK-MEL-5 cells and CHO-muMerTK OE cells were plated at 40,000 cells/well. Anti-MerTK antibodies were titrated to a final concentration range of between 66.6 nM to 4 pM and then added to the cells. After 30 min on ice, cells were washed and then stained with APC-conjugated mouse anti-human Kappa antibody (Southern Biotech Cat #9230-11, Birmingham, Ala.) and a viability die (Life Technologies) in the presence of Fc block solution on ice for 30 minutes, and then washed twice with cold FACS buffer (2% FBS in PBS). Cells were fixed with 4% paraformaldehyde in PBS. Stained cells were acquired on a BD FACS Canto II cytometer and the mean fluorescence intensity (MFI) was calculated with FlowJo software and K value was calculated with Prism software. […] A lower Kd value reflects higher binding of antibody to cells.

B1: MTK-16 (antibody, human IgG1, V domains shown)
VH: LIQLVQSGPELKKPGETVKISCKASGYTFTNHGMNWVKQDPGKGLKWMGWINTYTGEPTYADDFKGRFVFSMETSASAAFLQINNLKNEDTATYFCARKGVTAARYFDYWGQGTTLTVSS
VL: DIVMTQSPKFMSTSVGDRVSITCKASQNVRTAVAWYKKKPGQSPKALINLASNRHTGVPDRFTGSGSGTDFTLTISNVQSEDLADYFCLQHWNYPLTFGGGTKLEIK
With B1, the binding result in assay [1] is given as “no binding”.

B2: MTK-10 (antibody, human IgG1, V domains shown)
VH: QVTLKESGPGILQPSQTLSLTCSFSGFSLTTSGMGVGWIRQPSGKGLEWLAHIWSDDDKRSNPALKSRLTISQDSSTNQVFLKIASVDTADSATYYCSHLTPVREFAYWGPGTLVTVSE
VL: DIQMTQTTSSLSASLGDRVTISCSASQGISNYLNWFQQKPDGTVKLLIYYTSRLHSGVPSRFSGSGSGTDFSLTISNLEPEDIATYYCQQYTKLPYTFGGGTKLEIK
Take B2: the binding result in assay [1] is “no binding”.

B3: MTK-30 (antibody, human IgG1, V domains shown)
VH: QVQLQQPGTELVRPGASVKLSCKASGYTFTSYWMHWVKQRPGQGLEWIGNLNPNNGGTYYNEKFKSKATLTVDKSSSTAYMQLSSLTSEDSAVYYCARQILLYFDYWGQGTTLTVSS
VL: DVLMTQTPLSLPVSLGDQASISCRSSQSIVHSNGDTYLEWYLQKPGQSPKLLIYKVSNRFSGVPDRFSGSGSGTDFTLKISRVEAEDLGVYYCFQGSHVPWTFGGGTKLEIK
Consider B3, for which the Kd (commonly the free concentration of one partner at which half of the binding sites on the other are occupied at equilibrium, for simple one-to-one binding) in assay [2] was found to be 0.24 nM. Besides, the binding result in assay [1] was “no binding”.

B4: MTK-31 (antibody, human IgG1, V domains shown)
VH: QIQLVQSGPELKKSGETVKISCKASGYTFTSYGMSWVKQAPGKGLKWMGWINTYSGVPTYADDFKGRFAFSLETSASTAYLQINNLKNEDTATYFCASLSYDGSLYHAMDYWGQGTSVTVSS
VL: DVSMTQTPLSLPVSLGDQASISSRSSQTIVHSNGNTYLEWYLQKPGQSPKLLIYKVSNRFSGVPDRFSGSGSGTDFTLKISRVEAEDLGVYYCFQGSHVPWTFGGGTKLEIK
B4: the equilibrium dissociation constant (Kd) in assay [2] was determined as 2.91 nM.

B5: MTK-24 (antibody, human IgG1, V domains shown)
VH: QVQLQQPGAELVKPGASVKLSCKASGYTFTSYWMHWVKQRPGQGLEWIGMIHPNINTNYNEKFKSKATLTVDISSSTAYMQLSSLTSEDSAVYYCAKRSPYSNYDWYFDVWGTGTTVTVSS
VL: DIQMTQSPASLSVSVGETVTITCRASENIYSNLAWYQQKQGKSPQLLVYAATNLADGVPSRFSGSGSGTQYSLKINSLQSEDFGSYYCQHFWGTPLTFGAGTKLELK
With B5, the Kd in assay [2] was 0.22 nM.

B6: MTK-21 (antibody, human IgG1, V domains shown)
VH: QIQLVQSGPELKKPGETVKISCKASGYTFTNFGMTWVRQAPGMDLKWMGWINTYTGEPKYADDFKGRFALSLETSASTAYLQITNFKNEDTATYFCARGGGRLGLRPLDYWGQGTTLTVSS
VL: DIQMTQTTSSLSASLGDRVTISCRASQDINNYLNWYQQKPDGTVKLLIYYTSSLHSGVPSRFSGSGSGTDYSLTITNLEQEDIATYFCQQGNTLPWTFGGGTRLEIK
Take B6: the binding result in assay [1] is recorded as “no binding”.

B7: MTK-29 (antibody, human IgG1, V domains shown)
VH: QIQLVQSGPELKKPGETVKISCKSSGFTFTTYGMSWVKQAPGKGLKWMGWINTYSGVPTYTDDFKGRFAFSLETSASTASLQINNLKNEDTATYFCARYTNYGYFDYWGQGTTLTVSS
VL: QIVLSQSPAILSASPGEKVTMTCRATSSVGYMHWYQQKPGSSPKPWIYATSNLASGVPARFSGSGSGTSYSLTISRVEAEHAATYYCQQWGSNPFTFGSGTKLEIK
Turning to B7, the equilibrium dissociation constant (Kd) in assay [2] turned out to be 5.22 nM. The binding result in assay [1] is recorded as “no binding”.

B8: MTK-15 (antibody, human IgG1, V domains shown)
VH: QIQLVQSGPELKKPGETVKISCKASGYTFTNYGVHWVKQAPGKGLKWMGWINTYTGEPTYADDFKGRFAFSLETSASTAYLQINNLKNEDMATYFCARGNRYAYMDYWGQGTSVTVSS
VL: QIVLSQSPAILSASPGEKVTMTCRASSSVSYMHWYQQKSGSSPKPWIYATSNLASGVPARFSGSGSGTSYSLTISRVEAEDAATYYCQQWSSNPRTFGGGTKLEIK
Take B8: in assay [1], the binding result is “no binding”.

B9: MTK-06 (antibody, human IgG1, V domains shown)
VH: QIQLVQSGPELKKPGETVKISCKASGYTFTNYGMNWVKQAPGKGLKWMGWINTNTGEPTYAEEFKGRFAFSLETSASTAYLQINNLKNEDTATYFCARYYNYWYFDVWGAGTTVTVSS
VL: QIVLSQSPAILSASPGEKVTMTCRASSSVSYMHWYQQKPGSSPKPWIYATSNLASGVPARFSGSGSGTSYSLTISRVEAEDAATYYCQQWSSKPPTFGGGTKLEIK
Turning to B9, the binding result in assay [1] is “no binding”.

B10: MTK-33 (antibody, human IgG1, V domains shown)
VH: QVQLQQPGPELVRPGTSVKLSCKASGYTFTSYWMHWIKQRPGQGLEWIGVIDPSDNYINYNQKFKGKATLTVDTSSSTAYLQLSSLTSEDSAVYYCAREAGTRGYFDYWGQGTTLTVSS
VL: SIVMTQTPKFLLVSAGDRVIITCKASQSVSNTVAWYQQKPGQSPKLLIYYASNRYTGVPDRFTGSGYGTDFTFTISTVQAEDLAVYFCQQDYRSPFTFGSGTQLEMK
On to B10, for which, in assay [2], the Kd is 0.53 nM. Further, the binding result in assay [1] is “no binding”.
